Reference: publication PMC11952830 (2025)
No end group written: not given here. TMR = tetramethylrhodamine

Target: actin (rabbit muscle) (rabbit, UniProt P68135 1-377)
Assay: FP; actin filaments

Kd: 18.9 µM
Binder: {TMR}-MPAKTPIYLKAANNKKGKKFK (domain or fragment) [Cdc42EP3 (1-21), TMR labeled at the N-terminus]
